Experimental findings from article PMC6834639, “Molecular basis for chirality-regulated Aβ self-assembly and receptor recognition revealed by ion mobility-mass spectrometry” (Nature Communications, 2019) are described below.

Data set [1] has as its target T1, human serum albumin (HSA) (human, UniProt P02768 25-609).
T1 construct: serum albumin, human; source: bought: Sigma-Aldrich
Kind of data set: native MS; native IM-MS with CIU of HSA-Aβ (1–10) complexes, charge states 15+ to 18+. The following applies: both partners purified.

In data set [2] the target is tetrameric transthyretin (TTR) (UniProt P02766 21-147). The data set is described as follows: SPR; OpenSPR (Nicoya), TTR immobilised on a COOH chip by amine coupling; Aβ peptides injected (Aβ C-terminals 2.4-48 µM; Aβ (1–40/42) 0.2-20 µM); PBS pH 6.8 with 0.005% Tween 20; 150 s association, 400 s dissociation; 1:1 interaction model. The following applies: both partners purified. (In general: In SPR one partner is held on a chip, and binding of the other changes the refractive index at the surface.)

Data set [3] concerns the molecule itself. The data set is described as follows: native MS; IM-MS of oligomers of one Aβ fragment alone; Aβ (1–10) and Aβ (1–16) 600 µM, 10 mM NH4OAc; oligomers of many sizes seen, a printed size is the largest one.
Data set [4] has as its target T1, human serum albumin (HSA). The data set is described as follows: native MS; native IM-MS with collision-induced unfolding (CIU); 100 mM NH4OAc; Aβ (1–16) 15 µM, Cu2+ 20 µM, BSA/HSA 7.5 µM; 37 °C incubation. The following applies: both partners purified.
For data set [5], the target named is T2, bovine serum albumin (BSA) (bovine, UniProt P02769 25-607).
T2 construct: serum albumin, bovine; source: bought: Sigma-Aldrich
T2 sequence (P02769 25-607): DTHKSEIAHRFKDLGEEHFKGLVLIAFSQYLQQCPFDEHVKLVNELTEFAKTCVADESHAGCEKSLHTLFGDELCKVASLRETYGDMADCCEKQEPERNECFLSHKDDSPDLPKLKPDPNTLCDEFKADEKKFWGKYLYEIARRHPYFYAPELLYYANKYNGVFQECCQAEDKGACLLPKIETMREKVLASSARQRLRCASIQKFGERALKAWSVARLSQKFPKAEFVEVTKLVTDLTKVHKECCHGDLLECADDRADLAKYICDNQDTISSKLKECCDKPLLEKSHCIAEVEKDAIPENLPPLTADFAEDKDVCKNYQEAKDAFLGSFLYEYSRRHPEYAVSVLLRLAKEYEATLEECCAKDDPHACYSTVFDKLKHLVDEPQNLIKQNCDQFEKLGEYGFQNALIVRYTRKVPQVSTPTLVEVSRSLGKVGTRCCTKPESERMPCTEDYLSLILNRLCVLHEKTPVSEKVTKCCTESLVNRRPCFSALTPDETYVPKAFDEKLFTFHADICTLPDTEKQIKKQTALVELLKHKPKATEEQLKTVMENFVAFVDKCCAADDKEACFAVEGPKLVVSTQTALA
The description is as above. The following applies: both partners purified.

Data set [6] deals with the molecule itself. The data set is described as follows: native MS; IM-MS of YGGFL aggregates; mass spectrum, concentration dependence and growth curve.

Square brackets hold non-standard residues; d marks the D form. Ends that are not written are not given here.

B1: WT Aβ (1–10) (peptide)
peptide: DAEFRHDSGY
notes: amyloid beta residues 1-10, all L; also called Aβ N-terminal fragment; source: bought: Sangon Biotech Co., Ltd. (Shanghai, China)
Consider B1, for which the binding result in data set [1] is listed as “binds”.

B2: dS Aβ (17–36) (peptide)
peptide: LVFFAEDVG[dS]NKGAIIGLMV
notes: amyloid beta residues 17-36 with D-isomerized Ser; also called single D-isomerized Aβ (17–36); source: bought: Sangon Biotech Co., Ltd. (Shanghai, China)
In general, Kd refers to the equilibrium constant for the complex coming apart. A high value points to lower affinity. Usually koff stands for the first-order rate constant of dissociation. The low end stands for a long-lived complex, the high end for a short-lived complex. In general, kon refers to the rate constant with which the complex forms. A lower kon goes with slow association. In data set [2], B2 displayed a Kd of 118 µM, a koff of 0.114 s⁻¹ and a kon of 1160 M⁻¹ s⁻¹.

B3: dDdS Aβ (17–36) (peptide)
peptide: LVFFAE[dD]VG[dS]NKGAIIGLMV
notes: amyloid beta residues 17-36 with D-isomerized Asp and Ser; also called co-isomerized Aβ (17–36); source: bought: Sangon Biotech Co., Ltd. (Shanghai, China)
In data set [2], B3 returned a Kd of 83.1 µM, a koff of 0.102 s⁻¹ and a kon of 1930 M⁻¹ s⁻¹.

B4: WT Aβ (1–16) (peptide)
peptide: DAEFRHDSGYEVHHQK
notes: amyloid beta residues 1-16, all L; also called wild type Aβ (1–16); source: bought: Sangon Biotech Co., Ltd. (Shanghai, China)
Consider B4, for which the binding result in data set [3], in data set [4] and in data set [5] was “binds” in each case.

B5: YGGFL (peptide)
peptide: YGGFL
notes: YGGFL, used as a known model of isotropic growth
With B5, the binding result in data set [6] was “binds”.

B6: dD Aβ (17–36) (peptide)
peptide: LVFFAE[dD]VGSNKGAIIGLMV
notes: amyloid beta residues 17-36 with D-isomerized Asp; also called single D-isomerized Aβ (17–36); source: bought: Sangon Biotech Co., Ltd. (Shanghai, China)
As to B6, in data set [2], the Kd is 149 µM, the koff amounted to 0.132 s⁻¹ and the on-rate (kon) is 990 M⁻¹ s⁻¹.

B7: WT Aβ (17–36) (peptide)
peptide: LVFFAEDVGSNKGAIIGLMV
notes: amyloid beta residues 17-36, all L; also called Aβ C-terminal fragment; source: bought: Sangon Biotech Co., Ltd. (Shanghai, China)
As to B7, in data set [2], binding was put at a Kd of 11.5 µM, the koff was 0.008 s⁻¹ and the kon turned out to be 690 M⁻¹ s⁻¹.
